Laboratory results as given in the supplement of paper PMC5998384.

Experiments:
HeLa Kyoto [1] = assay: solubility in G1/S (NP-40 vs SDS abundance) (log2 ratio); higher = more soluble; conditions: cell cycle stage: G1/S
HeLa Kyoto [2] = assay: solubility change mitosis vs G1/S (difference of NP-40 vs SDS log2 ratios) (log2 ratio difference); higher = more soluble in mitosis
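Throughout, for solubility change mitosis vs G1/S (difference of NP-40 vs SDS log2 ratios): synchronized HeLa Kyoto cells (double thymidine block for G1/S, nocodazole release for mitosis), protein amounts in NP-40 versus SDS lysates quantified by mass spectrometry, three biological replicates.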
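Throughout, for solubility in G1/S (NP-40 vs SDS abundance): HeLa Kyoto cells arrested at G1/S by double thymidine block, proteins quantified by TMT10plex mass spectrometry in mild NP-40 versus SDS extracts, three biological replicates.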

Substance	solubility in G1/S (log2) (HeLa Kyoto [1])	solubility change mitosis (log2) (HeLa Kyoto [2])
MGNIFGNLLKSLIGKKEMRILMVGLDAAGKTTILYKLKLGEIVTTIPTIGFNVETVEYKNISFTVWDVGGQDKIRPLWRHYFQNTQGLIFVVDSNDRERVNEAREELMRMLAEDELRDAVLLVFANKQDLPNAMNAAEITDKLGLHSLRHRNWYIQATCATSGDGLYEGLDWLANQLKNKK [ARF3]	-0.169	-0.299
MAGPQPLALQLEQLLNPRPSEADPEADPEEATAARVIDRFDEGEDGEGDFLVVGSIRKLASASLLDTDKRYCGKTTSRKAWNEDHWEQTLPGSSDEEISDEEGSGDEDSEGLGLEEYDEDDLGAAEEQECGDHRESKKSRSHSAKTPGFSVQSISDFEKFTKGMDDLGSSEEEEDEESGMEEGDDAEDSQGESEEDRAGDRNSEDDGVVMTFSSVKVSEEVEKGRAVKNQIALWDQLLEGRIKLQKALLTTNQLPQPDVFPLFKDKGGPEFSSALKNSHKALKALLRSLVGLQEELLFQYPDTRYLVDGTKPNAGSEEISSEDDELVEEKKQQRRRVPAKRKLEMEDYPSFMAKRFADFTVYRNRTLQKWHDKTKLASGKLGKGFGAFERSILTQIDHILMDKERLLRRTQTKRSVYRVLGKPEPAAQPVPESLPGEPEILPQAPANAHLKDLDEEIFDDDDFYHQLLRELIERKTSSLDPNDQVAMGRQWLAIQKLRSKIHKKVDRKASKGRKLRFHVLSKLLSFMAPIDHTTMNDDARTELYRSLFGQLHPPDEGHGD [AATF]	-2.12	0.788
KMT2B	-0.355	0.243
MAEGEGYFAMSEDELACSPYIPLGGDFGGGDFGGGDFGGGDFGGGGSFGGHCLDYCESPTAHCNVLNWEQVQRLDGILSETIPIHGRGNFPTLELQPSLIVKVVRRRLAEKRIGVRDVRLNGSAASHVLHQDSGLGYKDLDLIFCADLRGEGEFQTVKDVVLDCLLDFLPEGVNKEKITPLTLKEAYVQKMVKVCNDSDRWSLISLSNNSGKNVELKFVDSLRRQFEFSVDSFQIKLDSLLLFYECSENPMTETFHPTIIGESVYGDFQEAFDHLCNKIIATRNPEEIRGGGLLKYCNLLVRGFRPASDEIKTLQRYMCSRFFIDFSDIGEQQRKLESYLQNHFVGLEDRKYEYLMTLHGVVNESTVCLMGHERRQTLNLITMLAIRVLADQNVIPNVANVTCYYQPAPYVADANFSNYYIAQVQPVFTCQQQTYSTWLPCN [FAM46A]	-0.00125	-0.172
MMMVRRGLLAWISRVVVLLVLLCCAISVLYMLACTPKGDEEQLALPRANSPTGKEGYQAVLQEWEEQHRNYVSSLKRQIAQLKEELQERSEQLRNGQYQASDAAGLGLDRSPPEKTQADLLAFLHSQVDKAEVNAGVKLATEYAAVPFDSFTLQKVYQLETGLTRHPEEKPVRKDKRDELVEAIESALETLNSPAENSPNHRPYTASDFIEGIYRTERDKGTLYELTFKGDHKHEFKRLILFRPFGPIMKVKNEKLNMANTLINVIVPLAKRVDKFRQFMQNFREMCIEQDGRVHLTVVYFGKEEINEVKGILENTSKAANFRNFTFIQLNGEFSRGKGLDVGARFWKGSNVLLFFCDVDIYFTSEFLNTCRLNTQPGKKVFYPVLFSQYNPGIIYGHHDAVPPLEQQLVIKKETGFWRDFGFGMTCQYRSDFINIGGFDLDIKGWGGEDVHLYRKYLHSNLIVVRTPVRGLFHLWHEKRCMDELTPEQYKMCMQSKAMNEASHGQLGMLVFRHEIEAHLRKQKQKTSSKKT [CSGALNACT1]	0.0522	0.00125
MAEPLLRKTFSRLRGREKLPRKKSDAKERGHPAQRPEPSPPEPEPQAPEGSQAGAEGPSSPEASRSPARGAYLQSLEPSSRRWVLGGAKPAEDTSLGPGVPGTGEPAGEIWYNPIPEEDPRPPAPEPPGPQPGSAESEGLAPQGAAPASPPTKASRTKSPGPARRLSIKMKKLPELRRRLSLRGPRAGRERERAAPAGSVISRYHLDSSVGGPGPAAGPGGTRSPRAGYLSDGDSPERPAGPPSPTSFRPYEVGPAARAPPAALWGRLSLHLYGLGGLRPAPGATPRDLCCLLQVDGEARARTGPLRGGPDFLRLDHTFHLELEAARLLRALVLAWDPGVRRHRPCAQGTVLLPTVFRGCQAQQLAVRLEPQGLLYAKLTLSEQQEAPATAEPRVFGLPLPLLVERERPPGQVPLIIQKCVGQIERRGLRVVGLYRLCGSAAVKKELRDAFERDSAAVCLSEDLYPDINVITGILKDYLRELPTPLITQPLYKVVLEAMARDPPNRVPPTTEGTRGLLSCLPDVERATLTLLLDHLRLVSSFHAYNRMTPQNLAVCFGPVLLPARQAPTRPRARSSGPGLASAVDFKHHIEVLHYLLQSWPDPRLPRQSPDVAPYLRPKRQPPLHLPLADPEVVTRPRGRGGPESPPSNRYAGDWSVCGRDFLPCGRDFLSGPDYDHVTGSDSEDEDEEVGEPRVTGDFEDDFDAPFNPHLNLKDFDALILDLERELSKQINVCL [SYDE1]	0.269	0.106
MAPEENAGTELLLQSFERRFLAARTLRSFPWQSLEAKLRDSSDSELLRDILHKTVKHPVCVKHPPSVKYARCFLSELIKKHEAVHTEPLDELYEALAETLMAKESTQGHRSYLLPSGGSVTLSESTAIISYGTTGLVTWDAALYLAEWAIENPAVFTNRTVLELGSGAGLTGLAICKMCRPRAYIFSDCHSRVLEQLRGNVLLNGLSLEADITAKLDSPRVTVAQLDWDVATVHQLSAFQPDVVIAADVLYCPEAIMSLVGVLRRLAACREHQRAPEVYVAFTVRNPETCQLFTTELGRAGIRWEVEPRHEQKLFPYEEHLEMAMLNLTL [EEF2KMT]	0.0707	-0.00202
MSQGPPTGESSEPEAKVLHTKRLYRAVVEAVHRLDLILCNKTAYQEVFKPENISLRNKLRELCVKLMFLHPVDYGRKAEELLWRKVYYEVIQLIKTNKKHIHSRSTLECAYRTHLVAGIGFYQHLLLYIQSHYQLELQCCIDWTHVTDPLIGCKKPVSASGKEMDWAQMACHRCLVYLGDLSRYQNELAGVDTELLAERFYYQALSVAPQIGMPFNQLGTLAGSKYYNVEAMYCYLRCIQSEVSFEGAYGNLKRLYDKAAKMYHQLKKCETRKLSPGKKRCKDIKRLLVNFMYLQSLLQPKSSSVDSELTSLCQSVLEDFNLCLFYLPSSPNLSLASEDEEEYESGYAFLPDLLIFQMVIICLMCVHSLERAGSKQYSAAIAFTLALFSHLVNHVNIRLQAELEEGENPVPAFQSDGTDEPESKEPVEKEEEPDPEPPPVTPQVGEGRKSRKFSRLSCLRRRRHPPKVGDDSDLSEGFESDSSHDSARASEGSDSGSDKSLEGGGTAFDAETDSEMNSQESRSDLEDMEEEEGTRSPTLEPPRGRSEAPDSLNGPLGPSEASIASNLQAMSTQMFQTKRCFRLAPTFSNLLLQPTTNPHTSASHRPCVNGDVDKPSEPASEEGSESEGSESSGRSCRNERSIQEKLQVLMAEGLLPAVKVFLDWLRTNPDLIIVCAQSSQSLWNRLSVLLNLLPAAGELQESGLALCPEVQDLLEGCELPDLPSSLLLPEDMALRNLPPLRAAHRRFNFDTDRPLLSTLEESVVRICCIRSFGHFIARLQGSILQFNPEVGIFVSIAQSEQESLLQQAQAQFRMAQEEARRNRLMRDMAQLRLQLEVSQLEGSLQQPKAQSAMSPYLVPDTQALCHHLPVIRQLATSGRFIVIIPRTVIDGLDLLKKEHPGARDGIRYLEAEFKKGNRYIRCQKEVGKSFERHKLKRQDADAWTLYKILDSCKQLTLAQGAGEEDPSGMVTIITGLPLDNPSVLSGPMQAALQAAAHASVDIKNVLDFYKQWKEIG [SMG5]	-0.176	-0.207
MAHEAMEYDVQVQLNHAEQQPAPAGMASSQGGPALLQPVPADVVSSQGVPSILQPAPAEVISSQATPPLLQPAPQLSVDLTEVEVLGEDTVENINPRTSEQHRQGSDGNHTIPASSLHSMTNFISGLQRLHGMLEFLRPSSSNHSVGPMRTRRRVSASRRARAGGSQRTDSARLRAPLDAYFQVSRTQPDLPATTYDSETRNPVSEELQVSSSSDSDSDSSAEYGGVVDQAEESGAVILEEQLAGVSAEQEVTCIDGGKTLPKQPSPQKSEPLLPSASMDEEEGDTCTICLEQWTNAGDHRLSALRCGHLFGYRCISTWLKGQVRKCPQCNKKARHSDIVVLYARTLRALDTSEQERMKSSLLKEQMLRKQAELESAQCRLQLQVLTDKCTRLQRRVQDLQKLTSHQSQNLQQPRGSQAWVLSCSPSSQGQHKHKYHFQKTFTVSQAGNCRIMAYCDALSCLVISQPSPQASFLPGFGVKMLSTANMKSSQYIPMHGKQIRGLAFSSYLRGLLLSASLDNTIKLTSLETNTVVQTYNAGRPVWSCCWCLDEANYIYAGLANGSILVYDVRNTSSHVQELVAQKARCPLVSLSYMPRAASAAFPYGGVLAGTLEDASFWEQKMDFSHWPHVLPLEPGGCIDFQTENSSRHCLVTYRPDKNHTTIRSVLMEMSYRLDDTGNPICSCQPVHTFFGGPTCKLLTKNAIFQSPENDGNILVCTGDEAANSALLWDAASGSLLQDLQTDQPVLDICPFEVNRNSYLATLTEKMVHIYKWE [RFWD3]	-0.0967	-0.0684
MAAQAAAAAQAAAAQAAQAEAADSWYLALLGFAEHFRTSSPPKIRLCVHCLQAVFPFKPPQRIEARTHLQLGSVLYHHTKNSEQARSHLEKAWLISQQIPQFEDVKFEAASLLSELYCQENSVDAAKPLLRKAIQISQQTPYWHCRLLFQLAQLHTLEKDLVSACDLLGVGAEYARVVGSEYTRALFLLSKGMLLLMERKLQEVHPLLTLCGQIVENWQGNPIQKESLRVFFLVLQVTHYLDAGQVKSVKPCLKQLQQCIQTISTLHDDEILPSNPADLFHWLPKEHMCVLVYLVTVMHSMQAGYLEKAQKYTDKALMQLEKLKMLDCSPILSSFQVILLEHIIMCRLVTGHKATALQEISQVCQLCQQSPRLFSNHAAQLHTLLGLYCVSVNCMDNAEAQFTTALRLTNHQELWAFIVTNLASVYIREGNRHQEVLYSLLERINPDHSFPVSSHCLRAAAFYVRGLFSFFQGRYNEAKRFLRETLKMSNAEDLNRLTACSLVLLGHIFYVLGNHRESNNMVVPAMQLASKIPDMSVQLWSSALLRDLNKACGNAMDAHEAAQMHQNFSQQLLQDHIEACSLPEHNLITWTDGPPPVQFQAQNGPNTSLASLL [MAU2]	-0.154	-0.0035
MSTSSLRRQMKNIVHNYSEAEIKVREATSNDPWGPSSSLMSEIADLTYNVVAFSEIMSMIWKRLNDHGKNWRHVYKAMTLMEYLIKTGSERVSQQCKENMYAVQTLKDFQYVDRDGKDQGVNVREKAKQLVALLRDEDRLREERAHALKTKEKLAQTATASSAAVGSGPPPEAEQAWPQSSGEEELQLQLALAMSKEEADQPPSCGPEDDAQLQLALSLSREEHDKEERIRRGDDLRLQMAIEESKRETGGKEESSLMDLADVFTAPAPAPTTDPWGGPAPMAAAVPTAAPTSDPWGGPPVPPAADPWGGPAPTPASGDPWRPAAPAGPSVDPWGGTPAPAAGEGPTPDPWGSSDGGVPVSGPSASDPWTPAPAFSDPWGGSPAKPSTNGTTAAGGFDTEPDEFSDFDRLRTALPTSGSSAGELELLAGEVPARSPGAFDMSGVRGSLAEAVGSPPPAATPTPTPPTRKTPESFLGPNAALVDLDSLVSRPGPTPPGAKASNPFLPGGGPATGPSVTNPFQPAPPATLTLNQLRLSPVPPVPGAPPTYISPLGGGPGLPPMMPPGPPAPNTNPFLL [EPN1]	0.197	0.235
MGSELIGRLAPRLGLAEPDMLRKAEEYLRLSRVKCVGLSARTTETSSAVMCLDLAASWMKCPLDRAYLIKLSGLNKETYQSCLKSFECLLGLNSNIGIRDLAVQFSCIEAVNMASKILKSYESSLPQTQQVDLDLSRPLFTSAALLSACKILKLKVDKNKMVATSGVKKAIFDRLCKQLEKIGQQVDREPGDVATPPRKRKKIVVEAPAKEMEKVEEMPHKPQKDEDLTQDYEEWKRKILENAASAQKATAE [ORC6]	0.47	-0.389
